US20240066131A1 (Protagonist Therapeutics, Inc., priority 2020, published 2024)
Starred links: 1 amine or outer side, 2 acyl side, 3 side chain; linkers in the order of their positions; H or OH if unused. Non-standard residues stand in square brackets, D forms with d. Groups on a side chain read outwards from the residue. No end group written: not given here. *: point of attachment. Gal = N6-(4-(galactopyranosyloxy)butanoyl) on the lysine side chain; N_Butyl_Phe = CCCCN([C@@H](Cc1ccccc1)C(=O)[*:2])[*:1]; Dip = N[C@H](C(=O)O)C(c1ccccc1)c1ccccc1; γGlu = O=C(O)[C@H](CCC(=O)[*:2])N[*:1]; Palmitoyl = CCCCCCCCCCCCCCCC(=O)*; Myristoyl = CCCCCCCCCCCCCC(=O)*; β3hF = N[C@H](CC(=O)O)Cc1ccccc1; Isovaleryl = CC(C)CC(=O)*; Propionyl = CCC(=O)*; Ahx = NCCCCCC(=O)O; βAla = NCCC(=O)O

T1: human ferroportin (SLC40A1) fused in frame with GFP, stably expressed in HEK293 cells (human, UniProt Q9NP59 1-571)
T1 sequence (looked up): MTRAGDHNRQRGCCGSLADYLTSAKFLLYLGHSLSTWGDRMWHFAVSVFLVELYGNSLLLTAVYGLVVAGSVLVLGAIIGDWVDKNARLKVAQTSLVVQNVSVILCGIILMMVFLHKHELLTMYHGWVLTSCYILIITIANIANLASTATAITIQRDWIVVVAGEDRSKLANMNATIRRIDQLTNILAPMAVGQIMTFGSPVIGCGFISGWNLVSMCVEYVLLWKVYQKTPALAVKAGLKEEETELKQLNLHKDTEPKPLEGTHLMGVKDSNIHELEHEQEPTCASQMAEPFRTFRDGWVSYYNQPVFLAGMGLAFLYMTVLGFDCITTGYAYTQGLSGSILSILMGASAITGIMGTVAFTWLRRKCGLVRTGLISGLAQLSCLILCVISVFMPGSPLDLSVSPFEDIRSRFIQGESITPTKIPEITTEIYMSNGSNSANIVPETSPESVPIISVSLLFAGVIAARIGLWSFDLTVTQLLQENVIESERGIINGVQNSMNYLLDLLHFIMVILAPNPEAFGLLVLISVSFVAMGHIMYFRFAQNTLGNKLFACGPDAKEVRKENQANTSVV


Target: T1, human ferroportin (SLC40A1) fused in …
Assay: cell-based or functional assay

| Binder | FPN IC50 |
| --- | --- |
| Isovaleryl-ETHFPAIK([γGlu-C12 acid])FEPRSKGAK-NH2 [Isovaleric Acid-E-T-H-F-P-A-I-[Lys(IsoGlu_C12_acid)]-F-E-P-R-S-K-G-A-K-NH2] | 4490 nM |
| Isovaleryl-ETHFPAIK([γGlu-Myristoyl])FEPR[dS]-NH2 [Isovaleric Acid-E-T-H-F-P-A-I-[Lys(IsoGlu_C14_acid)]-F-E-P-R-[(D)Ser]-NH2] | 3680 nM |
| Heptanoic_Acid-LTH[Dip]PK([Ahx-Palmitoyl])[N_Butyl_Phe] [Heptanoic_Acid-L-T-H-[Dpa]-P-[Lys(Ahx_Palm)]-N_Butyl_Phe] | > 3000 nM |
| Isovaleryl-ETHFPAIK([Ahx-Myristoyl])FEPRSKGAK-NH2 [Isovaleric Acid-E-T-H-F-P-A-I-[Lys(Ahx_C14_acid)]-F-E-P-R-S-K-G-A-K-NH2] | 689 nM |
| Propionyl-LTH[Dip]PK([Ahx-Palmitoyl])[N_Butyl_Phe] [[Propionic_acid]-L-T-H-[Dpa]-P-[Lys(Ahx_Palm)]-N_Butyl_Phe] | 218 nM |
| Cyclohexanecarboxylic_Acid-LTH[Dip]PK([Ahx-Palmitoyl])[N_Butyl_Phe] [Cyclohexanecarboxylic_Acid-L-T-H-[Dpa]-P-[Lys(Ahx_Palm)]-N_Butyl_Phe] | 3300 nM |
| Isovaleryl-LTH[Dip]PK([γGlu-Palmitoyl])[N_Butyl_Phe] [Isovaleric Acid-L-T-H-[Dpa]-P-[Lys(IsoGlu_Palm)]-N_Butyl_Phe] | 222 nM |
| Isovaleryl-LTH[Dip]K([Ahx-Palmitoyl])[N_Butyl_Phe] [Isovaleric Acid-L-T-H-[Dpa]-[Lys(Ahx_Palm)]-N_Butyl_Phe] | > 3000 nM |
| Octanoic_Acid-LTH[Dip]PK([Ahx-Palmitoyl])-N_Butyl_Phe [Octanoic_Acid-L-T-H-[Dpa]-P-[Lys(Ahx_Palm)]-N_Butyl_Phe] | 1020 nM |
| Isovaleryl-K(Gal)TH[Dip]PK([Ahx-Palmitoyl])[β3hF]-NH2 [Isovaleric Acid-[Lys(Gal-T-H-[Dpa]-P-[Lys(Ahx_Palm)]-[bhPhe]-NH2] | 758 nM |

Further lines, results first:

| FPN IC50 | Binder |
| --- | --- |
| 469 nM | Isovaleryl-LTH[Dip]PK([βAla-Palmitoyl])[N_Butyl_Phe] [Isovaleric Acid-L-T-H-[Dpa]-P-[Lys(bAla_Palm)]-N_Butyl_Phe] |
| 1070 nM | Isovaleryl-ETHFPAIK([Ahx-C12 acid])FEPRSKGAK-NH2 [Isovaleric Acid-E-T-H-F-P-A-I-[Lys(Ahx_C12_acid)]-F-E-P-R-S-K-G-A-K-NH2] |
| 1160 nM | Isovaleryl-ETHFPAIK([Ahx-Myristoyl])FEPRSKGA[dK]-NH2 (SMILES CCCCCCCCCCCCCC(=O)NCCCCCC(=O)NCCCC[C@H](NC(=O)[C@@H](NC(=O)[C@H](C)NC(=O)[C@@H]1CCCN1C(=O)[C@H](Cc1ccccc1)NC(=O)[C@H](Cc1c[nH]cn1)NC(=O)[C@@H](NC(=O)[C@H](CCC(=O)O)NC(=O)CC(C)C)[C@@H](C)O)[C@@H](C)CC)C(=O)N[C@@H](Cc1ccccc1)C(=O)N[C@@H](CCC(=O)O)C(=O)N1CCC[C@H]1C(=O)N[C@@H](CCCNC(=N)N)C(=O)N[C@@H](CO)C(=O)N[C@@H](CCCCN)C(=O)NCC(=O)N[C@@H](C)C(=O)N[C@H](CCCCN)C(N)=O) [Isovaleric Acid-E-T-H-F-P-A-I-[Lys(Ahx_C14_acid)]-F-E-P-R-S-K-G-A-[(D)Lys]-NH2] |
| > 3000 nM | Isovaleryl-ETHFPAIK([Ahx-C10 acid])FEPRSKGAK-NH2 [Isovaleric Acid-E-T-H-F-P-A-I-[Lys(Ahx_C10_acid)]-F-E-P-R-S-K-G-A-K-NH2] |
| 5730 nM | Isovaleryl-ETHFPAIK([γGlu-Myristoyl])FEPRSKG[dA]-NH2 [Isovaleric Acid-E-T-H-F-P-A-I-[Lys(IsoGlu_C14_acid)]-F-E-P-R-S-K-G-[(D)Ala]-NH2] |
